Test results published in article PMC12669751, “Immunodominant antibodies against hemagglutinin in ferrets following infection with 2018 to 2019 influenza vaccine strains” (NPJ Vaccines, 2025).

Biological target: TX/50 cell-version rHA1 (A/Texas/50/2012(H3N2) HA1) (Influenza A virus …, UniProt R4L1D1, strain)
Experiment: BLI
Settings: one partner purified

B1: monoclonal antibody FluA-20 (antibody, V domains shown)
VH: QVQLEESGPGLVKPSETLSLTCSVSGVSVTSDIYYWTWIRQPPGKGLEWIGYIFYNGDTNYNPSLKSRVTMSIDTSKNEFSLRLTSVTAADTAVYFCARGTEDLGYCSSGSCPNHWGQGTLVTVSS
VL: DIVMTQSPSSLSASIGDRVTITCRPSQNIRSFLNWFQHKPGKAPKLLIYAASNLQSGVPSRFSGSGSGTEFTLTIRSLQPEDFATYYCQQSYNTPPTFGQGTKVEIK
notes: also called FluA-20 mAb; pan-H3 anti-HA1 mAb; copies: 2 + 2
binding result: binds
